Source: paper PMC4341510, “Jasmonate-responsive expression of paclitaxel biosynthesis genes in Taxus cuspidata cultured cells is negatively regulated by the bHLH transcription factors TcJAMYC1, TcJAMYC2, and TcJAMYC4”

Tests used:
TcJAMYC1 [1] = target: T1, TcJAMYC1 (Taxus cuspidata (cell culture line P991), UniProt B9VVN9 1-660); assay: EMSA; 25-75 ng protein; 20 mM HEPES-KOH pH 7.9, 20% glycerol, 0.2 mM EDTA, 100 mM KCl, 0.5 mM PMSF, 1 mM DTT, 15 mM MgCl2, 5 ug BSA; 175 fmol probe in 20 ul; gel 7% PAGE, 0.5X TBE, 4 C; binding temperature not stated; conditions: protein: recombinant; tags: N-terminal 6xHis (pDEST17); chain copies: 2; label: 32P by Klenow fill-in when probe; 5' overhang 4 nt at both ends; labeled probe filled in
T1 sequence (B9VVN9 entry or part of it): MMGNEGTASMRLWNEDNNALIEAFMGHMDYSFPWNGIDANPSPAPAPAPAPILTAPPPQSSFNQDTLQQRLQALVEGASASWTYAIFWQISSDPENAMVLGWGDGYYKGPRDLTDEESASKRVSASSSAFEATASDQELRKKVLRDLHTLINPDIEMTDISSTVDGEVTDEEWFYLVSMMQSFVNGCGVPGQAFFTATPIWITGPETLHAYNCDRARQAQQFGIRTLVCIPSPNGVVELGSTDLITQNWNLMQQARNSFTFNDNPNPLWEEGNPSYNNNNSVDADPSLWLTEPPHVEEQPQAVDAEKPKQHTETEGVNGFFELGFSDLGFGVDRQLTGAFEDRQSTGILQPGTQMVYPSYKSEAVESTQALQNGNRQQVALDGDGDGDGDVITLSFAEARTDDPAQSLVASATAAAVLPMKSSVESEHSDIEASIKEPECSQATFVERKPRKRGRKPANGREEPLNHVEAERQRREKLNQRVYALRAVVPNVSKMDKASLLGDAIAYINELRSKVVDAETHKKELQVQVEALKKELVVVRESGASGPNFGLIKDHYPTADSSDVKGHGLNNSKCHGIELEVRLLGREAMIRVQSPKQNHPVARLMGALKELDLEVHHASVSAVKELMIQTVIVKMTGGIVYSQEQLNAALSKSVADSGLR

TcJAMYC1 [2] = target: T1, TcJAMYC1; assay: competition EMSA; vs CATGTG probe; competes better than CATGTG self; 20 mM HEPES-KOH pH 7.9, 20% glycerol, 0.2 mM EDTA, 100 mM KCl, 0.5 mM PMSF, 1 mM DTT, 15 mM MgCl2, 5 ug BSA; 175 fmol probe in 20 ul; gel 7% PAGE, 0.5X TBE, 4 C; binding temperature not stated; conditions: protein: recombinant; tags: N-terminal 6xHis (pDEST17); chain copies: 2; label: 32P by Klenow fill-in when probe; 5' overhang 4 nt at both ends; labeled probe filled in
TcJAMYC1 [3] = target: T1, TcJAMYC1; assay: EMSA; 25-100 ng protein; 20 mM HEPES-KOH pH 7.9, 20% glycerol, 0.2 mM EDTA, 100 mM KCl, 0.5 mM PMSF, 1 mM DTT, 15 mM MgCl2, 5 ug BSA; 175 fmol probe in 20 ul; gel 7% PAGE, 0.5X TBE, 4 C; binding temperature not stated; conditions: protein: recombinant; tags: N-terminal 6xHis (pDEST17); chain copies: 2; label: 32P by Klenow fill-in when probe; 5' overhang 4 nt at both ends; labeled probe filled in
GUS (beta-glucuronidase) = GUS (beta-glucuronidase) (UniProt P05804 1-603); assay: EMSA; 25-75 ng protein; 20 mM HEPES-KOH pH 7.9, 20% glycerol, 0.2 mM EDTA, 100 mM KCl, 0.5 mM PMSF, 1 mM DTT, 15 mM MgCl2, 5 ug BSA; 175 fmol probe in 20 ul; gel 7% PAGE, 0.5X TBE, 4 C; binding temperature not stated; conditions: protein: recombinant; label: 32P by Klenow fill-in when probe; 5' overhang 4 nt at both ends; labeled probe filled in
Sequence of GUS (beta-glucuronidase) (P05804 whole entry): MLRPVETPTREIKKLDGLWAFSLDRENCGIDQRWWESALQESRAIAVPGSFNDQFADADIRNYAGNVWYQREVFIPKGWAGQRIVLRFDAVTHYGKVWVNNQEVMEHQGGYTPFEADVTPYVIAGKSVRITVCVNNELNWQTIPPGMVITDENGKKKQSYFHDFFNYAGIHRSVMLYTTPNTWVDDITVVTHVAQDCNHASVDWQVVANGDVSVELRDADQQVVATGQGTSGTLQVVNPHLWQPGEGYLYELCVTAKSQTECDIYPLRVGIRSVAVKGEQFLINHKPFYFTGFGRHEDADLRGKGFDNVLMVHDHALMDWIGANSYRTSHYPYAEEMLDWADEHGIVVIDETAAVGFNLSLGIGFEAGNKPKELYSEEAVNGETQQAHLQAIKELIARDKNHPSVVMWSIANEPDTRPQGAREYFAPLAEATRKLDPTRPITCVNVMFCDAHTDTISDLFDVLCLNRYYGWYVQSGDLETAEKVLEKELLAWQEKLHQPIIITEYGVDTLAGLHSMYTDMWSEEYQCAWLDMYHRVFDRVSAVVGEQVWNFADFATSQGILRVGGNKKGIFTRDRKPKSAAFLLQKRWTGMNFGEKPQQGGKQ

B1: Mutated (no E-box) (dsDNA)
DNA 1: TAGCGCATCGATAAGCCTATCGATCG
DNA 2: CGTACGATCGATAGGCTTATCGATGC
B1: no binding (TcJAMYC1 [1]).

B2: CACGTG E-box (dsDNA)
DNA 1: TAGCATCGATCGCACGTGATCGATCG
DNA 2: CGTACGATCGATCACGTGCGATCGAT
B2: binds (TcJAMYC1 [2]).

B3: CATGTG E-box (dsDNA)
DNA 1: TAGCGCATCGATCATGTGATCGATCG
DNA 2: CGTACGATCGATCACATGATCGATGC
B3: binds (TcJAMYC1 [3]); no binding (GUS (beta-glucuronidase)).
